# In IntAct's records for PubMed 22531782:
# B1: E3 ubiquitin-protein ligase RNF8 (Homo sapiens), O76064 (parent)
# chain: MGEPGFFVTGDRAGGRSWCLRRVGMSAGWLLLEDGCEVTVGRGFGVTYQLVSKICPLMISRNHCVLKQNPEGQWTIMDNKSLNGVWLNRARLEPLRVYSIHQGDYIQLGVPLENKENAEYEYEVTEEDWETIYPCLSPKNDQMIEKNKELRTKRKFSLDELAGPGAEGPSNLKSKINKVSCESGQPVKSQGKGEVASTPSDNLDPKLTALEPSKTTGAPIYPGFPKVTEVHHEQKASNSSASQRSLQMFKVTMSRILRLKIQMQEKHEAVMNVKKQTQKGNSKKVVQMEQELQDLQSQLCAEQAQQQARVEQLEKTFQEEEQHLQGLEIAQGEKDLKQQLAQALQEHWALMEELNRSKKDFEAIIQAKNKELEQTKEEKEKMQAQKEEVLSHMNDVLENELQCIICSEYFIEAVTLNCAHSFCSYCINEWMKRKIECPICRKDIKSKTYSLVLDNCINKMVNNLSSEVKERRIVLIRERKAKRLF
# Variants of: B1
# Settings: with chd4_human CHD4, Q14839
# chd4_human CHD4, Q14839, sequence (Q14839 whole entry): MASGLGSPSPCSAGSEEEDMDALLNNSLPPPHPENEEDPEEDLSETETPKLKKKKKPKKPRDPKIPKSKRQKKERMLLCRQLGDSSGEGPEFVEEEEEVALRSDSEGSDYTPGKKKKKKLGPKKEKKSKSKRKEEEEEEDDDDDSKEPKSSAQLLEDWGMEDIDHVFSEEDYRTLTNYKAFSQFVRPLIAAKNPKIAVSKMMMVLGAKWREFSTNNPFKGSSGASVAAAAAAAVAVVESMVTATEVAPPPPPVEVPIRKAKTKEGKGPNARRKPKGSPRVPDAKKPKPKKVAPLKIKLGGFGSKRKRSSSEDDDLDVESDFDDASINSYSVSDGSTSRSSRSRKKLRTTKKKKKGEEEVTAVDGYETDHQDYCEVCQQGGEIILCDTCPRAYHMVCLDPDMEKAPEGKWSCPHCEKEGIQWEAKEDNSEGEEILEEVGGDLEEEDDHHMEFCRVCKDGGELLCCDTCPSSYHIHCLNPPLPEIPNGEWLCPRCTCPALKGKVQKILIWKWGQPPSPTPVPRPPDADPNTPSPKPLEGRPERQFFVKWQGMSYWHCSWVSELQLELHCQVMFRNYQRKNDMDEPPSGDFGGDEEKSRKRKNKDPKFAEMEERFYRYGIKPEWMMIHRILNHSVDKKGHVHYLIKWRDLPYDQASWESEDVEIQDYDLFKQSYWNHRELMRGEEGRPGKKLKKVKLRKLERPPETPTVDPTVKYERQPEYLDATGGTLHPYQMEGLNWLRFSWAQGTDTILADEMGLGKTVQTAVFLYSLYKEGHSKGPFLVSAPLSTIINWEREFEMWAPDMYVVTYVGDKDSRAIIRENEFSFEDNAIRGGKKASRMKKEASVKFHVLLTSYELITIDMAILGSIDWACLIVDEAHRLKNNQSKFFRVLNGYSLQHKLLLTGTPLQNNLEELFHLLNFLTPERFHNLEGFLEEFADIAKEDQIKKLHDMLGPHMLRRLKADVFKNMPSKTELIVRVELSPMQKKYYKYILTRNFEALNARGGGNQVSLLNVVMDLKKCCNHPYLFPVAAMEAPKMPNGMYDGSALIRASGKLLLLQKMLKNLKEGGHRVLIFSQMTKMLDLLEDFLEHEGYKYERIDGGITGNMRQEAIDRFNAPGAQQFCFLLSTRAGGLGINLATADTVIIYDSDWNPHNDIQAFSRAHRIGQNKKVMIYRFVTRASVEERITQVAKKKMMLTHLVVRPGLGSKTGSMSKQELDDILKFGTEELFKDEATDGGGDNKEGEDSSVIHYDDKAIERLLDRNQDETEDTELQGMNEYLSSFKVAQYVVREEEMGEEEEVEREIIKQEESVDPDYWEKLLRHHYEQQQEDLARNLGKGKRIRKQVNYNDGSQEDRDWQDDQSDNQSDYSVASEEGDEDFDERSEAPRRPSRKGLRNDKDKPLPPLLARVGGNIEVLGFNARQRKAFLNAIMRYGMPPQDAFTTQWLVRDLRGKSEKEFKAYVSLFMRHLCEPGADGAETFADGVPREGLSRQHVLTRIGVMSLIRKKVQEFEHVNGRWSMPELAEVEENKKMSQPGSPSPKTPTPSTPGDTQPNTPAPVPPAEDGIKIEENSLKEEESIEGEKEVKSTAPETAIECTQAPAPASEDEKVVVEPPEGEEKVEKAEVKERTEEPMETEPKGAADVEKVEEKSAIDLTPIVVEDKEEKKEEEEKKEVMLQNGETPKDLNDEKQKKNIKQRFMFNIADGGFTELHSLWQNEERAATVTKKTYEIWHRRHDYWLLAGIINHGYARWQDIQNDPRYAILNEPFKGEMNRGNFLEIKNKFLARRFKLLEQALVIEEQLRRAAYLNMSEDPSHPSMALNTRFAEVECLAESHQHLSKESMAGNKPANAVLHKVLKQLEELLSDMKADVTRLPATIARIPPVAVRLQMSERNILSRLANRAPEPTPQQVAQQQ
row,effect of a mutation on the interaction,Variant
1,increasing interaction,C403S
2,increasing interaction,R42A
